US20240132578A1

Experiments:
Assay in all cases: cell-based or functional assay
[1] = molecular target: HIV-1 envelope glycoprotein (Env) of isolate MGRM-Chronic-B-008, on pseudovirus (HIV-1)
[2] = molecular target: HIV-1 92UG005 Env (HIV-1)
[3] = molecular target: HIV-1 CMU02 envelope protein (Env) on pseudovirus (HIV-1)
[4] = molecular target: HIV-1 envelope glycoprotein (Env) of isolate MG RM-A-006, subtype A (HIV-1)
[5] = molecular target: HIV-1 92UG024 Env (HIV-1)
[6] = molecular target: HIV-1 envelope glycoprotein (Env) of isolate 93TH305, on pseudovirus (HIV-1)
[7] = molecular target: HIV-1 envelope glycoprotein (Env) of isolate CMU02, subtype AE (HIV-1)
[8] = molecular target: HIV-1 envelope glycoprotein (Env) of isolate 6535.3, on pseudovirus (HIV-1)
[9] = molecular target: HIV-1 Env of isolate MGRM-F1-018 (pseudovirus) (HIV-1)
[10] = molecular target: HIV-1 envelope glycoprotein (Env) of isolate MGRM-C-020 (HIV-1)
[11] = molecular target: HIV-1 envelope glycoprotein (Env) of isolate LAVIC_18 (HIV-1)
[12] = molecular target: HIV-1 envelope glycoprotein (Env) of isolate MGRM-C-015 (HIV-1)
[13] = molecular target: HIV-1 Env of isolate CAAN.A2 (Acute), clade B (HIV-1)
[14] = molecular target: HIV-1 MGRM-AG-005 Env (pseudovirus) (HIV-1)
[15] = molecular target: envelope of aMLV pseudovirus (negative control)
[16] = molecular target: HIV-1 Env of pseudovirus MGRM-G-027 (HIV-1)
[17] = molecular target: HIV-1 Env of pseudovirus MGRM-G-019 (HIV-1)
[18] = molecular target: HIV-1 Env of pseudovirus MGRM-G-024 (HIV-1)
[19] = molecular target: HIV-1 93IN905 envelope (Env) on pseudovirus (HIV-1)
[20] = molecular target: HIV-1 Env of isolate MGRM-A-001 (clade A pseudovirus) (HIV-1)
[21] = molecular target: HIV-1 IAVI-C22 envelope (Env) on pseudovirus (HIV-1)
[22] = molecular target: HIV-1 MGRM-AG-013 Env (pseudovirus) (HIV-1)
[23] = molecular target: HIV-1 Env of pseudovirus MGRM-F1-012 (clade F) (HIV-1)
[24] = molecular target: HIV-1 envelope glycoprotein (Env) of isolate MGRM-C-007 (HIV-1)
[25] = molecular target: HIV-1 Env of isolate MGRM-AG-001 (subtype AG) (HIV-1)
[26] = molecular target: HIV-1 Env of isolate MGRM-Chronic-B-002 (HIV-1)
[27] = molecular target: HIV-1 Env of isolate 92WR009 (pseudovirus) (HIV-1)
[28] = molecular target: HIV-1 Env of isolate MGRM-AG-012 (subtype AG) (HIV-1)
[29] = molecular target: HIV-1 Env of isolate MGRM-F1-020 (HIV-1)
[30] = molecular target: HIV-1 Env of isolate MGRM-F1-013 (HIV-1)
[31] = molecular target: HIV-1 Env of isolate MGRM-AG-005 (subtype AG) (HIV-1)
[32] = molecular target: HIV-1 Env of pseudovirus isolate MGRM-C-015 (clade C) (HIV-1)
[33] = molecular target: HIV-1 Env of pseudovirus isolate MGRM-C-013 (clade C) (HIV-1)
[34] = molecular target: HIV-1 Env of isolate MGRM-A-001 (pseudovirus) (HIV-1)
[35] = molecular target: HIV-1 Env of pseudovirus isolate MGRM-C-019 (clade C) (HIV-1)
[36] = molecular target: HIV-1 Env of isolate MGRM-C-005 (HIV-1)
[37] = molecular target: HIV-1 Env of isolate MGRM-AG-002 (pseudovirus) (HIV-1)

1443_C16 (PG16) (TCN-116) (antibody), sequence (VH): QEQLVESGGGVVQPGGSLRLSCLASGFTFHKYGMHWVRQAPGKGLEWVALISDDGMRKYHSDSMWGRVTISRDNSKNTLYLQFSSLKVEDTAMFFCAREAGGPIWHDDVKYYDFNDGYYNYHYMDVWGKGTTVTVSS
1443_C16 (PG16) (TCN-116) (antibody), sequence (VL): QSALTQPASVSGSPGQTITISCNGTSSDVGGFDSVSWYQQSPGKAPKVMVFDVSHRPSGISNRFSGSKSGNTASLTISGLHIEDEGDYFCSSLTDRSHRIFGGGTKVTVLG

Row | Substance | IC50, pseudovirus neutralization [1] | IC50, pseudovirus neutralization [4] | IC50, pseudovirus neutralization [5] | IC50, pseudovirus neutralization [6] | IC50, pseudovirus neutralization [7] | IC50, pseudovirus neutralization [8] | IC50 (µg/mL), pseudovirus neutralization [9] | IC50 (µg/ml), pseudovirus neutralization [10] | IC50 (µg/ml), pseudovirus neutralization [11] | IC50 (µg/ml), pseudovirus neutralization [12] | IC50 (µg/ml), pseudovirus neutralization [13] | IC50 (µg/ml), pseudovirus neutralization [14] | IC50 (µg/ml), pseudovirus neutralization [16] | IC50 (µg/ml), pseudovirus neutralization [17] | IC50 (µg/ml), pseudovirus neutralization [18] | neutralization IC50 [21] | IC50 (µg/ml), pseudovirus neutralization [22] | IC50 [23] | IC50 (µg/ml), pseudovirus neutralization [24] | IC50 (µg/mL), pseudovirus neutralization [37] | further results
1 | 4838_L06 (PGT-121) (antibody) | 0.007 µg/mL | 0.396 µg/mL | > 10 µg/mL | 0.007 µg/mL | > 50 µg/mL | 0.005 µg/mL | 0.04 µg/mL |  |  |  |  |  |  |  |  |  |  |  |  |  | IC50, pseudovirus neutralization [2]: > 10 µg/mL; IC50 (ug/mL), pseudovirus neutralization [3]: > 10 µg/mL
2 | 1495_C14 (PGC14) (antibody) |  |  |  |  |  |  |  | > 50 µg/mL | > 50 µg/mL | > 50 µg/mL | > 50 µg/mL | > 50 µg/mL | > 50 µg/mL | > 50 µg/mL | > 50 µg/mL | 9.5 µg/mL | > 50 µg/mL | > 50 µg/mL | > 50 µg/mL |  | IC50 [15]: > 50 µg/mL; neutralization IC50 [19]: > 50 µg/mL; IC50 (µg/ml), pseudovirus neutralization [20]: > 50 µg/mL
3 | 2F5 (antibody) |  |  |  |  |  |  |  | > 50 µg/mL | > 50 µg/mL | > 50 µg/mL | 23.1 µg/mL | > 50 µg/mL | 0.28 µg/mL | > 50 µg/mL | 1.07 µg/mL | > 50 µg/mL | 1.79 µg/mL | > 50 µg/mL | > 50 µg/mL |  | IC50 [15]: > 50 µg/mL; neutralization IC50 [19]: > 50 µg/mL; IC50 (µg/ml), pseudovirus neutralization [20]: > 50 µg/mL
4 | 5136_H01 (PGT-131) (antibody) |  |  |  |  |  |  |  |  |  |  |  |  |  |  |  |  |  |  |  |  | IC50, pseudovirus neutralization [25]: > 50 µg/mL; IC50 (µg/mL), pseudovirus neutralization [26]: > 50 µg/mL; IC50 (µg/mL), pseudovirus neutralization [27]: 3.12 µg/mL; IC50, pseudovirus neutralization [28]: > 50 µg/mL; IC50 (µg/mL), pseudovirus neutralization [29]: > 50 µg/mL; IC50 (µg/mL), pseudovirus neutralization [30]: > 50 µg/mL; IC50, pseudovirus neutralization [31]: 1.04 µg/mL; IC50, pseudovirus neutralization [32]: 1.01 µg/mL; IC50, pseudovirus neutralization [33]: > 50 µg/mL; IC50 (µg/mL), pseudovirus neutralization [34]: > 50 µg/mL; IC50, pseudovirus neutralization [35]: 0.021 µg/mL; IC50 (µg/mL), pseudovirus neutralization [36]: 1.36 µg/mL
5 | b12 (antibody) |  |  |  |  |  |  |  | > 50 µg/mL | > 50 µg/mL | 13.3 µg/mL | > 50 µg/mL | > 50 µg/mL | > 50 µg/mL | 3.77 µg/mL | 2.38 µg/mL | 3.6 µg/mL | > 50 µg/mL | > 50 µg/mL | > 50 µg/mL |  | IC50 [15]: > 50 µg/mL; neutralization IC50 [19]: 34.1 µg/mL; IC50 (µg/ml), pseudovirus neutralization [20]: > 50 µg/mL
6 | 5141_B17 (PGT-126) (antibody) | 5.89 µg/mL | > 50 µg/mL | > 10 µg/mL | 0.013 µg/mL | > 50 µg/mL | 0.022 µg/mL | 14.9 µg/mL |  |  |  |  |  |  |  |  |  |  |  |  | > 50 µg/mL | IC50, pseudovirus neutralization [2]: 0.0181 µg/mL; IC50 (ug/mL), pseudovirus neutralization [3]: > 10 µg/mL
7 | 4877_D15 (PGT-122) (antibody) | 0.017 µg/mL | > 50 µg/mL | > 10 µg/mL | 0.013 µg/mL | > 50 µg/mL | 0.006 µg/mL | 0.563 µg/mL |  |  |  |  |  |  |  |  |  |  |  |  | > 50 µg/mL | IC50, pseudovirus neutralization [2]: > 10 µg/mL; IC50 (ug/mL), pseudovirus neutralization [3]: > 10 µg/mL
8 | 5123_A06 (PGT-125) (antibody) | > 50 µg/mL | > 50 µg/mL | > 10 µg/mL | 0.008 µg/mL | > 50 µg/mL | 0.01 µg/mL | > 50 µg/mL |  |  |  |  |  |  |  |  |  |  |  |  | > 50 µg/mL | Neutralization by PGT-125, IC50 [14]: > 10 µg/mL; Neutralization by PGT-125, IC80 [14]: > 10 µg/mL; Neutralization by PGT-125, IC90 [14]: > 10 µg/mL; Neutralization by PGT-125, IC95 [14]: > 10 µg/mL; IC50, pseudovirus neutralization [2]: > 10 µg/mL; IC50 (ug/mL), pseudovirus neutralization [3]: > 10 µg/mL
9 | 4E10 (antibody) |  |  |  |  |  |  |  | 2.8 µg/mL | > 50 µg/mL | 2.52 µg/mL | 17.9 µg/mL | 2.13 µg/mL | 1.19 µg/mL | 6.53 µg/mL | 1.57 µg/mL | 1.02 µg/mL | 2.61 µg/mL | 0.37 µg/mL | 5.84 µg/mL |  | IC50 [15]: > 50 µg/mL; neutralization IC50 [19]: 1.55 µg/mL; IC50 (µg/ml), pseudovirus neutralization [20]: 15.1 µg/mL
10 | 2G12 (antibody) |  |  |  |  |  |  |  | 18.6 µg/mL | > 50 µg/mL | 1.75 µg/mL | > 50 µg/mL | > 50 µg/mL | > 50 µg/mL | 31 µg/mL | > 50 µg/mL | > 50 µg/mL | 0.95 µg/mL | 1.81 µg/mL | > 50 µg/mL |  | IC50 [15]: > 50 µg/mL; neutralization IC50 [19]: > 50 µg/mL; IC50 (µg/ml), pseudovirus neutralization [20]: > 50 µg/mL
11 | 1443_C16 (PG16) (TCN-116) (antibody) |  |  |  |  |  |  |  | > 50 µg/mL | 0.02 µg/mL | 0.26 µg/mL | 8.83 µg/mL | > 50 µg/mL | 0.01 µg/mL | 1.21 µg/mL | 0.01 µg/mL | 0.0687 µg/mL | 0.31 µg/mL | 0.003 µg/mL | 0.05 µg/mL |  | IC50 [15]: > 50 µg/mL; neutralization IC50 [19]: 0.102 µg/mL; IC50 (µg/ml), pseudovirus neutralization [20]: > 50 µg/mL
12 | 4858_P08 (PGT-123) (antibody) | 0.01 µg/mL | > 50 µg/mL | > 10 µg/mL | 0.008 µg/mL | > 50 µg/mL | 0.004 µg/mL | 0.054 µg/mL |  |  |  |  |  |  |  |  |  |  |  |  | > 50 µg/mL | IC50, pseudovirus neutralization [2]: 2.49 µg/mL; IC50 (ug/mL), pseudovirus neutralization [3]: > 10 µg/mL
13 | PGV04 (antibody) |  |  |  |  |  |  |  |  |  |  |  |  |  |  |  |  |  |  |  | 0.879 µg/mL | IC50 (µg/mL), pseudovirus neutralization [29]: 5.99 µg/mL
14 | 5145_B14 (PGT-127) (antibody) | 21.5 µg/mL | > 50 µg/mL |  | 0.017 µg/mL | > 50 µg/mL | 0.02 µg/mL | 3.59 µg/mL |  |  |  |  |  |  |  |  |  |  |  |  | > 50 µg/mL | 
15 | 1496_C09 (PG9) (TCN-109) (antibody) |  |  | 1.91 µg/mL |  |  |  |  |  | 0.1 µg/mL | 0.5 µg/mL | 5.67 µg/mL | 29.7 µg/mL | 0.01 µg/mL | 0.67 µg/mL | 0.07 µg/mL | 24.9 µg/mL | 0.23 µg/mL | 0.01 µg/mL | 0.09 µg/mL | 0.076 µg/mL | IC50 (µg/mL), pseudovirus neutralization [29]: 6.4 µg/mL
